Laboratory results: publication PMC3217979, “Thermostable Hexameric Form of Eis (Rv2416c) Protein of M. tuberculosis Plays an Important Role for Enhanced Intracellular Survival within Macrophages” (PLoS ONE, 2011)

Tests used:
[1] = target: the molecule itself; assay: SEC; […], pH 8.0, 25°C; […]
[2] = target: the molecule itself; assay: SDS-PAGE of unboiled and boiled samples; 10 µg Eis in 1% SDS, 0.125 M Tris pH 6.8, boiled or unboiled; 10% acrylamide gel, 0.1% SDS in Tris/Glycine pH 8.0; Coomassie stain

B1: Eis protein (Rv2416c) of M. tuberculosis (enzyme)
chain: MTVTLCSPTEDDWPGMFLLAAASFTDFIGPESATAWRTLVPTDGAVVVRDGAGPGSEVVGMALYMDLRLTVPGEVVLPTAGLSFVAVAPTHRRRGLLRAMCAELHRRIADSGYPVAALHASEGGIYGRFGYGPATTLHELTVDRRFARFHADAPGGGLGGSSVRLVRPTEHRGEFEAIYERWRQQVPGGLLRPQVLWDELLAECKAAPGGDRESFALLHPDGYALYRVDRTDLKLARVSELRAVTADAHCALWRALIGLDSMERISIITHPQDPLPHLLTDTRLARTTWRQDGLWLRIMNVPAALEARGYAHEVGEFSTVLEVSDGGRFALKIGDGRARCTPTDAAAEIEMDRDVLGSLYLGAHRASTLAAANRLRTKDSQLLRRLDAAFASDVPVQTAFEF
notes: also called aminoglycoside acetyltransferase Eis; recombinant Eis protein
stoichiometry N [1]: 6
stoichiometry N [2]: 3
